Source: US20050069907A1, “Methods for using double-mutant RNA polymerases with reduced discrimination between non-canonical and canonical nucleoside triphosphates” (priority 2002, published 2005)
Marks after values point to notes of the source that are not given here.

Tests used:
Format in all cases: biochemical
[1] = system: poly(dC); assay: Apparent miscoding on homopolymeric template poly(dC); conditions: poly(dC)
Method: (§1) Transcription reactions: Transcription reactions were carried out in 40 mM Tris-Cl pH 8.0, 15 mM MgCl2, and 5 mM DTT or 20 mM Manganese Citrate pH 8.0, 5 mM DTT at 37° C. Template, polymerase, and NTP concentrations were as indicated in the legends to the figures and tables. Relative activity determinations were made by taking 4 μl aliquots of reactions at 5, 10, and 20 minute time points and spotting on to DE81 filter paper. Unincorporated nucleotides were separated from incorporated nucleotides by washing the filter paper with 0.5 M KH2PO4 pH 7.0 and retained radioactive nucleotide was quantitated with a Molecular Dynamics phosphorimager. To evaluate rNTP/dNTP selectivity, reactions were run with 4 rNTPs and pT75 as template and α-P^32 rNTPs or α-P^32 dNTPs were used to label the transcripts. The relative rate of incorporation of an rNTP vs. its cognate dNTP was determined from the relative percentages of labeled rNTP vs. dNTP incorporated into DE81 retainable RNA at 5, 10, and 20 minute time points. Apparent miscoding frequencies were determined similarly, though in this instance the template was a single-stranded homopolymer and the reaction contained the complementary unlabeled rNTP, and complementary α-P^32 rNTP or one of the 3 non-complementary α-P^32 rNTPs. The relative percentages of labeled complementary vs. non-complementary rNTPs incorporated at 5, 10 and 20 minute time points gave an apparent miscoding rate. The rNTP/dNTP selectivity assay was used to test the following T7 RNAP mutants for effects on substrate discrimination: D537S, D537E, S539A, R5S1S, D552S, R627S, K631S, L637A, Y639S, Y639F, Y639A, G640A, F644A, G645A, Q649S, […], H811S, H811A, D812A, D812E, D812S, D812N, D879E+ΔF882+ΔA883, D879E+A881T+ΔA883, D879E+F884+A885, D879E+F882Y, D879E+ΔA883, D879E+F882W, D879E.
An increase in miscoding would be reflected in an increase in the rate of incorporation of the non-complementary NTP into RNA.
Numbers are averages from 2 experiments and reflect the ratio of the percentages of labeled rNTPs incorporated into RNA in reactions in which unlabeled complementary rNTPs were in great excess (0.5 mM) to labeled complementary or non-complementary rNTPs. Templates were at 0.1 mg/ml. Polymerases were at 10^−8 M in Mg^2+ buffer and 10^−7 M in Mn^2+ buffer.
*The upper number refers to results obtained in Mg^2+ buffer, the lower number to results in Mn^2+ buffer. n.d.: G640A, Y639A, Y639S were poorly active in Mn^2+ buffer, or on poly(dT) under all conditions.

[2] = system: supercoiled pT75; assay: rNTP/dNTP selectivity assay: labeled rNTP vs dNTP incorporation with 4 unlabeled rNTPs
Method: as §1
Relative selectivity of the mutant and W.T. polymerases for dNTPs and rNTPs: FIGS. 1-3 present a qualitative analysis of the structure of the transcripts produced by the W.T. and Y639F polymerases with various combinations of NTPs. […] To obtain a quantitative measure of the relative selectivity of the W.T. and mutant polymerases for dNTPs vs. rNTPs under conditions where transcript structure was not a complicating factor, reactions were carried out in which all 4 rNTPs were present but rNTPs or dNTPs were used to radiolabel the transcripts (see Table I).
Under these conditions the unlabeled rNTPs were present in vast excess relative to the labeling NTPs so labeling dNTPs are almost always incorporated adjacent to rNTPs and into transcripts of nearly uniform rNMP structure. […] This assay was used to screen our collection of T7 RNAP active site mutants for increased dNTP utilization. In this screen dATP incorporation in transcription reactions was examined with all of these mutants using supercoiled pT75 as the template, 4 cold rNTPs, and P32-rATP or P32-dATP to label. […] It has been reported that use of Mn^2+ instead of Mg^2+ decreases substrate discrimination and increases miscoding for a number of polymerases (Tabor and Richardson, 1989; Nivogi and Feldman, 1981). Therefore, the rNTP/dNTP selectivity of the mutant and W.T. enzymes were examined in Mn^2+-citrate buffer (Tabor and Richardson, 1989).

[3] = system: supercoiled pT75; assay: Relative transcription activity with different rNTP/dNTP mixes
Method: as §1
Relative activity of the W.T. and Y639F polymerases with different NTP combinations: The relative activities of the Y639F and W.T. polymerases with supercoiled pT75 as a template and various combinations of rNTPs/dNTPs were measured in both Mg^2+ and Mn^2+ buffers (see, Table II,).

Y639F: T7 RNAP with wild-type tyrosine at position 639 substituted by phenylalanine
Relative rate of incorporation GTP/ATP ([1]; Mg^2+ buffer): 338
Relative rate of incorporation GTP/CTP ([1]; Mg^2+ buffer): 550
Relative rate of incorporation GTP/UTP ([1]; Mg^2+ buffer): >1760
Relative rate of incorporation GTP/ATP ([1]; Mn^2+ buffer): 8
Relative rate of incorporation GTP/CTP ([1]; Mn^2+ buffer): 40
Relative rate of incorporation GTP/UTP ([1]; Mn^2+ buffer): 55
Reduction in selectivity for rNTPs over dNTPs relative to W.T., on average [2]: ~20 fold
Relative selectivity rCTP/dCTP ([2]; Mg^2+ buffer): 2.4-2.5
Relative selectivity rGTP/dGTP ([2]; Mg^2+ buffer): .93-1.6
Relative selectivity rUTP/dTTP ([2]; Mg^2+ buffer): 1.7-1.9
Relative selectivity rATP/dATP ([2]; Mg^2+ buffer, range of 2 experiments): 8.5-10 (Mg)*
Relative selectivity rATP/dATP ([2]; Mn^2+ buffer): .9-1.0 (Mn)*
Relative selectivity rCTP/dCTP ([2]; Mn^2+ buffer): .55-.80
Relative selectivity rGTP/dGTP ([2]; Mn^2+ buffer): .98-.99
Relative selectivity rUTP/dTTP ([2]; Mn^2+ buffer): .48-.76
Relative activity ([3]; 1 rNTP, dCTP, dATP, dGTP, with rGMP, Mg^2+): 3-5
Relative activity ([3]; 1 rNTP, dCTP, dATP, dGTP, with rGMP, Mn^2+): 1-2
Relative activity ([3]; 1 rNTP, dCTP, dATP, dTTP, Mg^2+): 12-14
Relative activity ([3]; 1 rNTP, dCTP, dATP, dTTP, Mn^2+): .7-2
Relative activity ([3]; 1 rNTP, dCTP, dATP, dUTP, Mg^2+): 10-11
Relative activity ([3]; 1 rNTP, dCTP, dATP, dUTP, Mn^2+): 2-3
Relative activity ([3]; 1 rNTP, dTTP, dATP, dGTP, with rGMP, Mg^2+): 11
Relative activity ([3]; 1 rNTP, dTTP, dATP, dGTP, with rGMP, Mn^2+): 1.5-2
Relative activity ([3]; 1 rNTP, dTTP, dCTP, dGTP, with rGMP, Mg^2+): 10-13
Relative activity ([3]; 1 rNTP, dTTP, dCTP, dGTP, with rGMP, Mn^2+): 2-4
Relative activity ([3]; 2 rNTPs, dATP, dGTP, rGMP, Mg^2+): 5-6
Relative activity ([3]; 2 rNTPs, dATP, dGTP, rGMP, Mn^2+): 1-1.5
Relative activity ([3]; 2 rNTPs, dATP, dTTP, Mg^2+): 11-14
Relative activity ([3]; 2 rNTPs, dATP, dTTP, Mn^2+): 3-4
Relative activity ([3]; 2 rNTPs, dCTP, dATP, Mg^2+): 20-29
Relative activity ([3]; 2 rNTPs, dCTP, dATP, Mn^2+): 4-7
Relative activity ([3]; 2 rNTPs, dCTP, dGTP, rGMP, Mg^2+): 11-14
Relative activity ([3]; 2 rNTPs, dCTP, dGTP, rGMP, Mn^2+): 2-5
Relative activity ([3]; 2 rNTPs, dCTP, dTTP, Mg^2+): 30
Relative activity ([3]; 2 rNTPs, dCTP, dTTP, Mn^2+): 5
Relative activity ([3]; 2 rNTPs, dCTP, dUTP, Mg^2+): 27-29
Relative activity ([3]; 2 rNTPs, dCTP, dUTP, Mn^2+): 4-7
Relative activity ([3]; 2 rNTPs, dTTP, dGTP, rGMP, Mg^2+): 13-15
Relative activity ([3]; 2 rNTPs, dTTP, dGTP, rGMP, Mn^2+): 3-6
Relative activity ([3]; 3 rNTPs, dATP, Mg^2+): 73
Relative activity ([3]; 3 rNTPs, dATP, Mn^2+): 2-3
Relative activity ([3]; 3 rNTPs, dCTP, Mg^2+): 86
Relative activity ([3]; 3 rNTPs, dCTP, Mn^2+): 7-11
Relative activity ([3]; 3 rNTPs, dGTP, rGMP, Mg^2+): 95-109
Relative activity ([3]; 3 rNTPs, dGTP, rGMP, Mn^2+): 1.4-2.5
Relative activity ([3]; 3 rNTPs, dGTP, Mg^2+): 43-63
Relative activity ([3]; 3 rNTPs, dGTP, Mn^2+): 3
Relative activity ([3]; 3 rNTPs, dTTP, Mg^2+): 90-96
Relative activity ([3]; 3 rNTPs, dTTP, Mn^2+): 4
Relative activity ([3]; 3 rNTPs, dUTP, Mg^2+): 82-91
Relative activity ([3]; 3 rNTPs, dUTP, Mn^2+): 7-8
Relative activity ([3]; 4 dNTPs, rGMP, Mg^2+): <.5
Relative activity ([3]; 4 dNTPs, rGMP, Mn^2+): .5
Relative activity ([3]; 4 rNTPs, Mg^2+): 200
Relative activity ([3]; 4 rNTPs, Mn^2+): 9
